Numbering of substitutions follows the chain as printed.
T1: TL1A in human blood (endogenous) (human, UniProt O95150 72-251, limits assumed)
T1 sequence (looked up): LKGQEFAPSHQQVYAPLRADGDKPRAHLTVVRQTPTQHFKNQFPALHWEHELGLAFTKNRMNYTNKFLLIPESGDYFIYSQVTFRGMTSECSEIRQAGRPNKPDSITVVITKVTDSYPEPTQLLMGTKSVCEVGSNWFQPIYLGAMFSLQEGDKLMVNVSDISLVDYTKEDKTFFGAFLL

B1: A147 (antibody, human IgG1, V domains shown)
VH: QVQLVQSGAEVKKPGASVKVSCKASGFDIQDTYMHWVKQRPGQGLEWMGRIEPASGHIKYDPKFQGRVTMTRDTSTSTVYMELSSLRSEDTAVYYCARSGGLPDWWGQGTTVTVSS
VL: EIVLTQSPGTLSLSPGERATLSCRASSSVSYMYWYQQKPGQAPRPLIYATSNLASGIPDRFSGSGSGTDFTLTISRLEPEDFAVYYCQQWEGNPRTFGGGTKLEIK
B2: A220 (antibody, human IgG1, V domains shown)
VH: B1 VH with E52D, I58T, G66V, V79A, M81L, W105V
VL: B1 VL with L46W
B3: A212 (antibody, human IgG1, V domains shown)
VH: QVQLVQSGAEVKKPGASVKVSCKASGFDIQDTYMHWVRQRPGQGLEWIGRIDPASGHTKYDPKFQVRATITTDTSTSTAYLELSSLRSEDTAVYYCARSGGLPDVWGQGTTVTVSS
VL: B1 VL
B4: A213 (antibody, human IgG1, V domains shown)
VH: B3 VH with I48M, A68V, A79V, L81M
VL: B1 VL
B5: A219 (antibody, human IgG1, V domains shown)
VH: B3 VH with R38K, I48M, A68V, T72R, A79V
VL: B1 VL
B6: A217 (antibody, human IgG1, V domains shown)
VH: B1 VH with E52D, I58T, G66V, M70I, W105V
VL: B1 VL

Target: T1, TL1A in human blood (endogenous)
Experiment: cell-based or functional assay

% Inhibition at 1 nM Ig (inhibition of interferon gamma release in human blood) [%] | % Inhibition at 10 nM Ig (inhibition of interferon gamma release in human blood) [%] | Binder
51.3 | 72.4 | B1
36.9 | 63.2 | B2
46.8 | 71.2 | B3
48.6 | 69.8 | B4
59.8 | 75.2 | B5
46 | 72.2 | B6
